Tests used:
[1] = biological target: human FcγRIIIa (CD16a) V158 (human); test: SPR; van't Hoff analysis of the temperature dependence of KD (21, 23, 25, 27, 29 °C), parameters at 25 °C; FcγRIIIa captured by anti His-tag antibody, antibody as analyte; PBS with 0.005% Tween-20
[2] = biological target: human FcγRIIIa (CD16a) V158 (human); test: SPR; Biacore 8K; His-tagged FcγRIIIa captured (aimed 60 RU) by anti His-tag antibody on a CM5 chip; antibody samples as analytes (trastuzumab samples 360 to 22.5 nM); PBS with 0.005% Tween-20; 1:1 Langmuir global fit; temperature of the printed KD not stated (measured at 21-29 °C)
[3] = biological target: human FcγRIIIa (CD16a) V158 (human); test: SPR; Biacore 8K; His-tagged FcγRIIIa captured (aimed 60 RU) by anti His-tag antibody immobilised on a CM5 chip; antibody samples as analytes (360 to 22.5 nM for the trastuzumab samples); PBS with 0.005% Tween-20; global fit, 1:1 Langmuir model; measured at 21-29 °C, the temperature of Table S1 not given
[4] = biological target: human FcγRIIIa (CD16a) V158 (human); test: SPR
Target sequence in this assay (P08637 17-208 F176V): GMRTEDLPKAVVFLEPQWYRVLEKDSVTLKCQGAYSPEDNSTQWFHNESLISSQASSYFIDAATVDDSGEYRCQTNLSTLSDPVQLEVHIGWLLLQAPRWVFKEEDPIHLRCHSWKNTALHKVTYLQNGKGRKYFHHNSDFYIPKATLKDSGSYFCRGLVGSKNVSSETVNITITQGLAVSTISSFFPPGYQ

koff [3] | kon [3] | Substance | also measured
0.0281 s⁻¹ | 550000 M⁻¹ s⁻¹ | Trastuzumab (anti-HER2 humanized IgG1) (antibody) | dH [1]: -35.9 kcal/mol; Kd [2]: 51 nM
0.0116 s⁻¹ | 950000 M⁻¹ s⁻¹ | monovalent DOTA-conjugated trastuzumab (antibody) | Kd [3]: 12.2 nM
0.0089 s⁻¹ | 2.46e+06 M⁻¹ s⁻¹ | divalent DOTA-conjugated trastuzumab (antibody) | 
 |  | divalent DOTA-conjugated trastuzumab | Kd [4]: 3.6 nM
0.0331 s⁻¹ | 540000 M⁻¹ s⁻¹ | Rituximab (Rituxan), an anti CD20 human antibody | Kd [2]: 61.4 nM
 |  | afucosyl rituximab | Kd [4]: 10.9 nM
0.0108 s⁻¹ | 990000 M⁻¹ s⁻¹ | afucosyl rituximab (antibody) | fold increase of affinity relative to rituximab [2]: 22 fold

Source: publication PMC10545826
